We go through four molecules from patent US20140212379A1 (AbbVie / Abbott, published 2014).

Experiment in all cases: cell-based or functional assay
The target in assay [1] is T1, Human mature IL-1α (human, UniProt P01583 113-271).
T1 sequence: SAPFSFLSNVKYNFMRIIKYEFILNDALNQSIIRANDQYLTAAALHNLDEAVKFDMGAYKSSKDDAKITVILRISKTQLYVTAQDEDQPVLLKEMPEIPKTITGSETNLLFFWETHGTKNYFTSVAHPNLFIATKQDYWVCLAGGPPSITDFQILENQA

The target in assay [2] is Human mature IL-1β (human, UniProt P01584 117-269).
Assay [3] deals with T2, Cynomolgus IL-1α (cynomolgus, UniProt P79340 113-271).
T2 sequence (looked up): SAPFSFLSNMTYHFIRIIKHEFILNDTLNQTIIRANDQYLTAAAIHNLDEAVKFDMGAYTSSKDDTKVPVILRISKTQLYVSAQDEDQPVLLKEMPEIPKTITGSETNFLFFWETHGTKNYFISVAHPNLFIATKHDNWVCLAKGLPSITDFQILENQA

Assay [4] deals with T3, Cynomolgus IL-1β (cynomolgus, UniProt P79182 117-268).
T3 sequence (looked up): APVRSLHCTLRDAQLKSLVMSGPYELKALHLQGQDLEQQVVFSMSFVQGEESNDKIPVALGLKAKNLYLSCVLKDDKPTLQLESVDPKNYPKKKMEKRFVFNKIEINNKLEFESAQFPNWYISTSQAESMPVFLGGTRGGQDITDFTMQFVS

Residue numbers refer to the chain shown, from its start.

B1: X3-LL-E26.13 DVD-Ig (bispecific antibody, human IgG1, kappa, L234A L235A)
heavy: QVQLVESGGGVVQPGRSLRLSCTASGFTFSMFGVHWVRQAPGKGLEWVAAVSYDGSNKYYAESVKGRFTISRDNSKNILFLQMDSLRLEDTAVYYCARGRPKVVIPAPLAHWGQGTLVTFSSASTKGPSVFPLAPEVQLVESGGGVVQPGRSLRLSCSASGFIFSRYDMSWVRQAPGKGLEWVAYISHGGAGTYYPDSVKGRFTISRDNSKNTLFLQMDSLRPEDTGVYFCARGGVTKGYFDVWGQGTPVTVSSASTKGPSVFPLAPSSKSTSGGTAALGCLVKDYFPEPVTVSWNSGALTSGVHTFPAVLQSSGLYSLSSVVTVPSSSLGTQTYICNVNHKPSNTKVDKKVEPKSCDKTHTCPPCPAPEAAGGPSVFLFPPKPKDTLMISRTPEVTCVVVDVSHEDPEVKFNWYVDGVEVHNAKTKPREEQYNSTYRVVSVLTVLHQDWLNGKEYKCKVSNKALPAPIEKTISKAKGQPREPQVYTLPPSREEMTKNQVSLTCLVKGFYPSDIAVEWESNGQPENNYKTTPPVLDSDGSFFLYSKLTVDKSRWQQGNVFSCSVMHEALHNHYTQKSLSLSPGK
light: DIQMTQSPSSVSASVGDRVTITCRASQGISSWLAWYQQKPGKAPKLLIYEASNLETGVPSRFSGSGSGSDFTLTISSLQPEDFATYYCQQTSSFLLSFGGGTKVEHKRTVAAPSVFIFPPDIQMTQSPSSLSASVGDRVTITCRASGNIHNYLTWYQQTPGKAPKLLIYNAKTLADGVPSRFSGSGSGTDYTFTISSLQPEDIATYYCQHFWSIPYTFGQGTKLQITRTVAAPSVFIFPPSDEQLKSGTASVVCLLNNFYPREAKVQWKVDNALQSGNSQESVTEQDSKDSTYSLSSTLTLSKADYEKHKVYACEVTHQGLSSPVTKSFNRGEC
B1: the “Potency (pM), inhibition of IL-1-induced hIL-8 in MRC5 cells” value (from here on “Potency (pM), inhibition”) in assay [1] was 8.9 pM; in assay [2], 1470 pM.

B2: E26.13-SS-X3 JM DVD-Ig (bispecific antibody, human IgG1, kappa, L234A L235A)
heavy: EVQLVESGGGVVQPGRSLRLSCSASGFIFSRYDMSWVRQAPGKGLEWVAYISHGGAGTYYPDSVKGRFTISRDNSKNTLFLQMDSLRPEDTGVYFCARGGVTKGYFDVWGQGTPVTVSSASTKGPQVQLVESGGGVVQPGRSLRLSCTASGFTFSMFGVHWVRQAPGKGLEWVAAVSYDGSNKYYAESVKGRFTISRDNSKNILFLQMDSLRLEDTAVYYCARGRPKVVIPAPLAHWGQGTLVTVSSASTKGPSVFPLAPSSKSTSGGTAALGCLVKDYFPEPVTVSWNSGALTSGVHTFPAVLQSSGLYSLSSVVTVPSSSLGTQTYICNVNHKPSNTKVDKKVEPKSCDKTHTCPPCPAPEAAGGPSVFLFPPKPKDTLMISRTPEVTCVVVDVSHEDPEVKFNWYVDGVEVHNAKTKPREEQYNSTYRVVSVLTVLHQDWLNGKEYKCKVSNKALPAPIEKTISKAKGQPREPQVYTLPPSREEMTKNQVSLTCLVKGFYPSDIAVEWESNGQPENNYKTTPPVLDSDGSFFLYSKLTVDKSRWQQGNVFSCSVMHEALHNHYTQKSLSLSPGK
light: DIQMTQSPSSLSASVGDRVTITCRASGNIHNYLTWYQQTPGKAPKLLIYNAKTLADGVPSRFSGSGSGTDYTFTISSLQPEDIATYYCQHFWSIPYTFGQGTKLQITRTVAAPDIQMTQSPSSVSASVGDRVTITCRASQGISSWLAWYQQKPGKAPKLLIYEASNLETGVPSRFSGSGSGSDFTLTISSLQPEDFATYYCQQTSSFLLSFGGGTKVEIKRTVAAPSVFIFPPSDEQLKSGTASVVCLLNNFYPREAKVQWKVDNALQSGNSQESVTEQDSKDSTYSLSSTLTLSKADYEKHKVYACEVTHQGLSSPVTKSFNRGEC
With B2, the “Potency (pM), inhibition” value is 26.5 pM in assay [1], 1880 pM in assay [3] and 17.6 pM in assay [4].

B3: E26.35-SS-X3 DVD-Ig (bispecific antibody, human IgG1, kappa, L234A L235A)
heavy: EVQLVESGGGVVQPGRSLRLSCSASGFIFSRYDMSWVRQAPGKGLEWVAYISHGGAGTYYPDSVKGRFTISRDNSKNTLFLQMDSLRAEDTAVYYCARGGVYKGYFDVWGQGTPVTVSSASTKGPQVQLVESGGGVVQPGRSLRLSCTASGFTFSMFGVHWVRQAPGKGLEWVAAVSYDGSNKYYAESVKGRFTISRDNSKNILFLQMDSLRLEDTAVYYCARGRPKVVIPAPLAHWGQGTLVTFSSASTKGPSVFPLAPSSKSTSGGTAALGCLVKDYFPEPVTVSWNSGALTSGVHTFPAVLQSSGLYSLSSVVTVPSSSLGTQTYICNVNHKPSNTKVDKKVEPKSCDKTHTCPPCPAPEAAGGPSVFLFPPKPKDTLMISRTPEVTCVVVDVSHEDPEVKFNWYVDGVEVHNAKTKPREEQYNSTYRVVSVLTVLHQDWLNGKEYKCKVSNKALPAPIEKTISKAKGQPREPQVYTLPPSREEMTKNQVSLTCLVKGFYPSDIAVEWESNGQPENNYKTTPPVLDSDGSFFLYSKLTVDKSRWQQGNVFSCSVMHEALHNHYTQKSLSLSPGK
light: B2 light with I219H
Consider B3, for which the “Potency (pM), inhibition” value in assay [1] turned out to be 25.8 pM; in assay [3], 474 pM; in assay [2] it was 1.8 pM; in assay [4], 0.6 pM.

B4: E26.13-LL-X3 DVD-Ig (bispecific antibody, human IgG1, kappa, L234A L235A)
heavy: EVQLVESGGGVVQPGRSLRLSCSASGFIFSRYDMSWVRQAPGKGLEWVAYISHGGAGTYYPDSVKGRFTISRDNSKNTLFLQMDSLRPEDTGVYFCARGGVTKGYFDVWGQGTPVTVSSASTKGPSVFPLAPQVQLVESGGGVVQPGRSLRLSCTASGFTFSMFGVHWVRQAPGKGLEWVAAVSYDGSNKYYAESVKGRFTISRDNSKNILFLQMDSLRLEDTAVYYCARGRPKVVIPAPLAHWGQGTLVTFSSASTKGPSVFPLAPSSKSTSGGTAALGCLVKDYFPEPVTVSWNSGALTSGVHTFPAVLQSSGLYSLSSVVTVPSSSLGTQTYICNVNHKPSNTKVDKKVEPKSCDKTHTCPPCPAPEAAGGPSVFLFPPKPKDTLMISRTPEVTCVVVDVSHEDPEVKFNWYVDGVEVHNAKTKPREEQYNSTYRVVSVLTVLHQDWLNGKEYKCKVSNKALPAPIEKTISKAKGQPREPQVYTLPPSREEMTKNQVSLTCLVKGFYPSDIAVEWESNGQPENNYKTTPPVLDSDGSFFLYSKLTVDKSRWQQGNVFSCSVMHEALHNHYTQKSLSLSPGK
light: DIQMTQSPSSLSASVGDRVTITCRASGNIHNYLTWYQQTPGKAPKLLIYNAKTLADGVPSRFSGSGSGTDYTFTISSLQPEDIATYYCQHFWSIPYTFGQGTKLQITRTVAAPSVFIFPPDIQMTQSPSSVSASVGDRVTITCRASQGISSWLAWYQQKPGKAPKLLIYEASNLETGVPSRFSGSGSGSDFTLTISSLQPEDFATYYCQQTSSFLLSFGGGTKVEHKRTVAAPSVFIFPPSDEQLKSGTASVVCLLNNFYPREAKVQWKVDNALQSGNSQESVTEQDSKDSTYSLSSTLTLSKADYEKHKVYACEVTHQGLSSPVTKSFNRGEC
Consider B4, for which the “Potency (pM), inhibition” value was 10.2 pM in assay [1] and 1050 pM in assay [3].
